Laboratory results from article PMC11196586, “Molecular insight into interactions between the Taf14, Yng1 and Sas3 subunits of the NuA3 complex” (Nature Communications, 2024).

Columns and labels:
[1] = biological target: T1, Taf14ET (Saccharomyces cerevisiae, UniProt P35189); test: NMR 1H,15N HSQC titration (chemical shift perturbations), Taf14ET; assay type: binding; conditions: 15N-labelled Taf14ET, 298 K, increasing amounts of mutated peptide
T1 construct: Taf14ET (aa 168-243); His; made in house; host or cells: Escherichia coli Rosetta-2 (DE3) pLysS
T1 sequence (P35189 168-243): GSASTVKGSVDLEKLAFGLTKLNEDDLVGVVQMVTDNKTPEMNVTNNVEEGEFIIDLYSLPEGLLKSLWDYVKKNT
Procedure: (§1) Nuclear magnetic resonance experiments were performed at 298 K on Varian INOVA 900 MHz (for Taf14FL) and 600 MHz (for Taf14ET and Taf14YEATS) spectrometers equipped with cryogenic probes as described. The NMR samples contained 0.05–0.2 mM uniformly ^15N-labeled Taf14 proteins in 50 mM Tris-HCl (pH 6.8–7.5), 150 mM NaCl, 0–5 mM DTT or 1x PBS (pH 6.6–7.5), supplemented with up to an additional 100 mM NaCl, 0–5 mM DTT or 0.2 mM TCEP and 8-10% D2O. Binding was characterized by monitoring chemical shift changes in ^1H,^15N HSQC spectra of the proteins induced by the addition of wild type or mutated Yng1EBM (aa 113-124), Sas3EBM (aa 111-122) and Yng1EBM-PHD (aa 100-219). NMR data were processed and analyzed using NMRPipe as previously described, with the apparent Kds being determined by a nonlinear least-squares analysis and a 1:1 stoichiometry in GraphPad Prism using the equation:2 Δδ=ΔδmaxL+P+Kd−L+P+Kd^2−4PL/2P Where [L] is the concentration of the peptide, [P] is concentration of the protein, Δδ is the observed chemical shift change, and Δδ max is the normalized chemical shift change at saturation. Normalized chemical shift changes were calculated using the equation δ=ΔδH^2+(ΔδN/5)^2 (3), where Δδ is the change in chemical shift in parts per million (ppm).

[2] = test system: Taf14FL-601 DNA complex; test: EMSA of 601 Widom DNA with Taf14FL with or without peptide; assay type: biochemical, Saccharomyces cerevisiae; conditions: protein preincubated with peptide at 1:2.5 molar ratio; 8% native polyacrylamide gel
Procedure: (§2) EMSAs were performed by mixing increasing amounts of Taf14 proteins with 0.25 pmol/lane of 601 DNA in 25 mM Tris-HCl pH 7.5, 25-100 mM NaCl, 0.2 mM ethylenediaminetetraacetic acid (EDTA), 10% glycerol and 1 mM DTT in 10 µL reaction volume. The Taf14 proteins were either preincubated with Yng1EBM at a 1:2.5 molar ratio or with Yng1EBM and Sas3EBM at a 1:1:1 molar ratio for a minimum of 1 h on ice or used without peptides prior to addition of DNA. Reaction mixtures were incubated at 4 °C for 10 min (2-2.5 µl of loading dye was added to each sample) and loaded onto an 8% native polyacrylamide gel. Electrophoresis was performed in 0.5x Tris-borate-EDTA (TBE) at 80–120 V on ice. The gels were stained with SYBR Gold (Thermo Fisher Sci) and visualized by Blue LED (UltraThin LED Illuminator-GelCompany).

[3] = test system: Taf14ET-601 DNA complex; test: EMSA of 601 Widom DNA with Taf14ET with or without peptide; assay type: biochemical, Saccharomyces cerevisiae; conditions: protein preincubated with peptide at 1:2.5 molar ratio; 8% native polyacrylamide gel
Procedure: as §2

[4] = test system: Taf14YEATS; test: NMR 1H,15N HSQC titration, Taf14YEATS; assay type: binding, Saccharomyces cerevisiae; conditions: 298 K
Procedure: as §1

[5] = biological target: the molecule itself; test: crystal structure; Taf14ET co-crystallized with Yng1EBM peptide (molar ratio 1:2.5); 40% PEG 400, 0.1 M Tris pH 8.5, 0.2 M LiSO4; 1.9 Å
[6] = biological target: T2, His-Taf14FL (aa 1-244) (S. cerevisiae, UniProt P35189 1-244, labeled using a His-Tag Labeling Kit RED-tris-NTA (2nd Generation)); test: MST; His-tagged Taf14 labeled with RED-tris-NTA, kept at 10 nM; unlabeled peptide added stepwise; 20 mM Tris-HCl pH 7.5, 150 mM NaCl, 2.5 mM DTT or 0-0.2 mM TCEP; apparent Kd, 1:1 stoichiometry; conditions: both partners purified
T2 construct: Taf14, S. cerevisiae, UniProt P35189, aa 1-244; His-tagged form used for MST; source: E. coli Rosetta-2 (DE3) pLysS, purified (Ni-NTA, SEC)
T2 sequence (looked up): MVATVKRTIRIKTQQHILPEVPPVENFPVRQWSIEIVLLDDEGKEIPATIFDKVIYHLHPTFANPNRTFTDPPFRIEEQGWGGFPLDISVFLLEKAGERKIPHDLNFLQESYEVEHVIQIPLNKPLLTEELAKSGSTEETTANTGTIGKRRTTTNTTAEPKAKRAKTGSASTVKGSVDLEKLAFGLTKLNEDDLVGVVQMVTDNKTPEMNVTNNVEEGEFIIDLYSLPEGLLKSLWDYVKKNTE

[7] = biological target: T3, Taf14FL (full length Taf14, aa 1-244) (S. cerevisiae, UniProt P35189 1-244); test: other fluorescence titration; tryptophan fluorescence of Taf14FL with Yng1EBM in the presence of H3K9cr peptide at a 1:10 Taf14FL:H3K9cr molar ratio; apparent Kd, 1:1 stoichiometry; conditions: both partners purified
T3 construct: Taf14, S. cerevisiae, UniProt P35189, aa 1-244; uniformly 15N-labelled for NMR; also called transcription initiation factor subunit 14
T3 sequence (looked up): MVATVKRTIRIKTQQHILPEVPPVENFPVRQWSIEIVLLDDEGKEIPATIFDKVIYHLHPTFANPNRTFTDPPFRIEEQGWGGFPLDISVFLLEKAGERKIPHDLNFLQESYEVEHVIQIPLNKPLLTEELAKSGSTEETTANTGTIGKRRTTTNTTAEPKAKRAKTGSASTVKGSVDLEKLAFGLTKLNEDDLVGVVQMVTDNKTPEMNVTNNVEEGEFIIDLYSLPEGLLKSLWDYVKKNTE

[8] = biological target: T3, Taf14FL (full length Taf14, aa 1-244); test: other fluorescence titration; tryptophan fluorescence, 25 °C; 1 μM Taf14ET or Taf14FL, increasing peptide; 50 mM Tris-HCl pH 6.8 or 7.5, 150 mM NaCl, 1 mM DTT or 0.2 mM TCEP; excitation 295 nm; apparent Kd, 1:1 stoichiometry; conditions: both partners purified
[9] = biological target: T4, Taf14ET (extra-terminal domain of Taf14, aa 168-243) (S. cerevisiae, UniProt P35189 168-243); test: as above; conditions: both partners purified
T4 construct: Taf14, S. cerevisiae, UniProt P35189, ET domain, aa 168-243; Uniformly 15N-labelled for NMR; also called ET domain of Taf14
T4 sequence (looked up): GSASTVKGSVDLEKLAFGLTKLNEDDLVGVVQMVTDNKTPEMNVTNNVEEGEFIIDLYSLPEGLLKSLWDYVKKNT

[10] = biological target: T4, Taf14ET (extra-terminal domain of …); test: NMR titration; 1H,15N HSQC of 0.05-0.2 mM 15N-labeled Taf14 proteins, 298 K, unlabeled peptide or Yng1EBM-PHD added; Tris-HCl or PBS, pH 6.6-7.5; apparent Kd from CSPs, 1:1 stoichiometry; conditions: both partners purified

I120D Yng1EBM: Yng1EBM peptide with I120 replaced with aspartate (EPKLLLKDNLKK)
binding of wild type Taf14ET judged by CSPs in 1H,15N HSQC spectra [1]: almost negligible CSPs

I118D Sas3EBM: Sas3EBM peptide with single point substitution I118D (SEELKVRDKYDS)
binding of wild type Taf14ET judged by CSPs in 1H,15N HSQC spectra [1]: abrogated binding

Ac-EPKLLLKINLKK-NH2 [Yng1EBM]
effect of peptide on binding of Taf14FL to 601 DNA (EMSA) [2]: enhanced
effect of peptide on DNA binding activity of isolated Taf14ET (EMSA) [3]: increased
CSPs induced in 15N-labeled Taf14YEATS [4]: No CSPs

V116D Sas3EBM: Sas3EBM peptide with single point substitution V116D (SEELKDRIKYDS)
binding of wild type Taf14ET judged by CSPs in 1H,15N HSQC spectra [1]: abrogated binding

B1: Yng1EBM peptide (aa 113-124 of Yng1), Ac-EPKLLLKINLKK-NH2 (peptide)
peptide: Ac-EPKLLLKINLKK-NH2
notes: also called Yng1 peptide; source: synthetic peptide (Synpeptide)
stoichiometry N [5]: 2
Kd [6]: 1200 nM
Kd [7]: 900 nM
Kd [8]: 1100 nM
Kd [9]: 600 nM

B2: L118D Yng1EBM peptide (aa 113-124 of Yng1) (peptide, UniProt Q08465 113-124, looked up)
peptide: EPKLLDKINLKK
notes: The wild-type peptide is Ac-...-NH2; source: peptide
Kd [10]: 430000 nM

B3: L116D Yng1EBM peptide (aa 113-124 of Yng1) (peptide, UniProt Q08465 113-124, looked up)
peptide: EPKDLLKINLKK
notes: as for B2
Kd [10]: 180000 nM
